From PMC5458090, “Decoding NADPH oxidase 4 expression in human tumors” (Redox Biology, 2017) come the findings set out here.

Assay [1] has as its target T1, MycDDK-HsNOX4 (human NADPH oxidase 4) (Homo sapiens, UniProt Q9NPH5).
T1 construct: NADPH oxidase 4 (NOX4), human, from plasmid pCMV-MycDDK-HsNOX4; also called MycDDK-NOX4; source: HEK293, stably (clones WT1, WT2) or transiently transfected; in whole-cell extract or on/in cells; not shown: Myc, N-terminal, kept; DDK, N-terminal, kept
The experiment in a line: Western blot; whole-cell extracts (RIPA buffer) loaded without boiling on a 4-20% Tris glycine gel, transferred to nitrocellulose, incubated with primary antibody overnight; fibroblasts treated with TGF-β1, COV362 cells with NOX4 siRNA. As to conditions: one partner purified.

Assay [2] has as its target T2, endogenous human NOX4 (Homo sapiens (endogenous), UniProt Q9NPH5).
T2 construct: NADPH oxidase 4 (NOX4), endogenous in human cell lines and human tissues; also called endogenous NOX4; NOX4 protein; source: endogenous: CCL-210 lung fibroblast and COV362 whole-cell extracts; COV362 and OVCAR3 membrane fractions; COV362 cells; formalin-fixed human tissues (BioMax TMA MC6163)
The assay is described as above. To be noted: one partner purified.

T1 sequence (Q9NPH5 whole entry): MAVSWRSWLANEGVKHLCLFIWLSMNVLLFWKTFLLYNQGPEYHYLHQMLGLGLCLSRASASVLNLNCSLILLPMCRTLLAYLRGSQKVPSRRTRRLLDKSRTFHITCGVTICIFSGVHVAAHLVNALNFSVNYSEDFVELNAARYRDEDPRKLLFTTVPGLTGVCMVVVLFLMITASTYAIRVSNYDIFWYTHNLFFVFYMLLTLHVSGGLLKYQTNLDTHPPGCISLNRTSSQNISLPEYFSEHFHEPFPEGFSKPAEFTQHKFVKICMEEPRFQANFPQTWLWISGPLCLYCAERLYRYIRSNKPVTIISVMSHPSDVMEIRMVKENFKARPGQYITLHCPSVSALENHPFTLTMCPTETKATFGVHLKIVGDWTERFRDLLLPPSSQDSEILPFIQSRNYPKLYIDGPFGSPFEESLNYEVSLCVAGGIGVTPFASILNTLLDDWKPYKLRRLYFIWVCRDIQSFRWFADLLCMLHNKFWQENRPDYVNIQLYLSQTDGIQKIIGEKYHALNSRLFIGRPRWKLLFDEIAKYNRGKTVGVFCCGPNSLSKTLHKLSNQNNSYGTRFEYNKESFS
T2 sequence (Q9NPH5 whole entry): as above

B1: NOX4 rabbit monoclonal antibody 47-6 (antibody, V domains shown)
VH: QSVEESGGRLVTPGGSLTLTCTVSGIDLSSNSVTWVRQAPGEGLKWIGIISDSHRAYYATWAKGRFTISKTSSTTVDLKMTSLTTGDTATYFCVVGNNIWGPGTLVTVSS
VL: AQVLTQTASPVSAAVGGTVTINCQASESVYSDNRLSWFQQKPGQPPKLLIYYASTLASGVPSRVKGSGSGTQFTLTISDLECDDAATYYCAGGFSNNIYEFGGGTEVVVK
notes: Rabbit monoclonal raised against fixed NOX4-overexpressing HEK293 cells and a peptide of human NOX4 amino acids 209-282 (E-loop); also called mAb 47-6; 47-6 mAb
For the molecule B1, the binding result in assay [1] and in assay [2] was “binds” throughout.
